What was measured:
calmodulin (CaM) [1] = molecular target: T1, calmodulin (CaM) (Homo sapiens, UniProt P0DP25); assay: NMR analysis of Ca2+-loaded CaM binding to wild type versus mutant IG peptides; settings: 15N-enriched IG peptide with CaM, intermediate versus slow exchange
calmodulin (CaM) [2] = molecular target: T1, calmodulin (CaM); assay: Isothermal titration calorimetry of CaM binding to NaV IG peptides; settings: for stoichiometry: 1:1 binding model; for effect of truncation of the IG peptide on CaM affinity: N- and C-terminally truncated IG peptides, Ca2+ present
calmodulin (CaM) [3] = settings: ref (15); cited from earlier work
[4] = molecular target: NaV1.5 inactivation gate peptide Q1483-A1529 (human) (UniProt Q14524); assay: SAXS
[5] = molecular target: NaV1.2 inactivation gate peptide (aligned to NaV1.5 Q1483-A1529) (human); assay: ITC
[6] = molecular target: NaV1.5 inactivation gate peptide Q1483-A1529 (human) (UniProt Q14524); assay: ITC
[7] = molecular target: NaV1.4 inactivation gate peptide (aligned to NaV1.5 Q1483-A1529) (human); assay: ITC
[8] = molecular target: NaV1.6 inactivation gate peptide (aligned to NaV1.5 Q1483-A1529) (human); assay: ITC
[9] = molecular target: NaV1.5 inactivation gate peptide D1471-V1532 (full-length IG, 62 residues) (human) (UniProt Q14524); assay: ITC
[10] = molecular target: NaV1.5 inactivation gate peptide Q1483-A1529 (human) (UniProt Q14524); assay: NMR titration
[11] = molecular target: NaV1.5 inactivation gate peptide Q1483-A1529 (human) (UniProt Q14524); assay: SEC-MALS
[12] = Solubility of IG peptide in ITC buffers; type: physicochemical; settings: under higher ionic strength conditions
[13] = ITC, 20 mM TRIS, 50 mM NaCl, 1 mM CaCl2, pH 7.4, triplicate, ± SD
[14] = ITC, in the presence of Ca2+, lower ionic strength buffer

Sequence of NaV1.5 inactivation gate peptide D1471-V1532 (full-length IG, 62 residues) (human) (Q14524 1471-1532, tags left off): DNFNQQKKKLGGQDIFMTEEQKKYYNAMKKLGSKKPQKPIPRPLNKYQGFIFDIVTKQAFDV

IG peptide double mutant: IG peptide with both the Y1494L (Site A) and F1522L (Site B) mutations
affinity of CaM for the variant IG peptide relative to WT (calmodulin (CaM) [1]): significant reduction in the affinity

H-GPGSQDIFMTEEQKKYYNAMKKLGSKKPQKPIPRPQNKIQGMVYDLVTKQA-OH [NaV 1.4]
stoichiometry (calmodulin (CaM) [2]; [13]): 1.06 ± 0.01 | ΔH (calmodulin (CaM) [2]; [13]): -8.8 ± 0.3 kcal/mol | ΔS (cal/mol•deg) (calmodulin (CaM) [2]; [13]): 3.8 ± 1.3 cal/mol•deg

H-GPGSQDIFMTEEQKKYYNAMKKLGSKKPQKPIPRPLNKIQGIVFDFVTQQA-OH [NaV 1.6]
stoichiometry (calmodulin (CaM) [2]; [13]): 1.03 ± 0.01 | ΔH (calmodulin (CaM) [2]; [13]): -9.0 ± 0.2 kcal/mol | ΔS (cal/mol•deg) (calmodulin (CaM) [2]; [13]): 2.5 ± 1.1 cal/mol•deg | Kd (calmodulin (CaM) [2]; SD): 82 ± 20 nM

Y1494A: Y1494A site A mutant of the IG from a previous study
effect of Y1494A site A mutation on CaM affinity (calmodulin (CaM) [3]): substantially reduced

Q1483: NaV1.5 IG peptide with the N terminus truncated to Q1483
effect of truncation of the IG peptide on CaM affinity (calmodulin (CaM) [2]; ITC): no effect on CaM affinity

T1526: NaV1.5 IG peptide with the C terminus truncated to T1526
effect of truncation of the IG peptide on CaM affinity (calmodulin (CaM) [2]; ITC): reduced affinity into the μM range

calmodulin (CaM), Ca2+-loaded unless stated (from UniProt P0DP25 1-149) (natural protein)
stoichiometry N [4]: 1 | stoichiometry N [5]: 1.02 | dH [6]: -5.8 kcal/mol | stoichiometry N [7]: 1.06 | Kd [8]: 82 nM | stoichiometry N [8]: 1.03 | dH [9]: -9.3 kcal/mol | stoichiometry N [10]: 1 | stoichiometry N [11]: 1

D1523: NaV1.5 IG peptide with the C terminus truncated to D1523
effect of truncation of the IG peptide on CaM affinity (calmodulin (CaM) [2]; ITC): reduced affinity into the μM range

D1471-V1532: 62-residue peptide corresponding to the full-length NaV1.5 inactivation gate (IG)
solubility [12]: limited solubility | CaM interaction in the absence of Ca2+ (calmodulin (CaM) [2]; ITC, absence of Ca2+): no interaction was observed | ΔH (calmodulin (CaM) [2]; [14]): -9.3 ± 0.1 kcal/mol | ΔS (calmodulin (CaM) [2]; [14]): 5.2 ± 1.1 cal/mol•deg

Reference: paper PMC5932218 (Structure (London, England : 1993), 2018)
